Assay results taken from the supplement of paper PMC12042874.
± gives the uncertainty stated by the source.

Assay: amyloid nucleation score (Sup35N fusion, yeast selection) (log enrichment); library NNK1; higher = more nucleation; inactive = no reads after selection
How it was run: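 Output and input plasmid inserts were sequenced by Illumina after psi-negative yeast carrying Sup35N fused to peptides of 20 random codons had been induced 24 hours with 100 μM copper sulfate and grown 7 days at 30°C on medium lacking adenine and uracil. The nucleation score is the DiMSum log enrichment of output over input reads, centred on the mode score of non-aggregating sequences. Sequences with under 100 input reads were excluded.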
VVVVKLQVQCDGESMSACLG gave an amyloid nucleation score of -0.495 ± 1.5. CVIKHSLRCFAIIGLSHRGG showed an amyloid nucleation score of -0.255 ± 0.97. Substance PTPILFCYQRCLGVYYMDET has an amyloid nucleation score of 0.198 ± 0.4. For TSRVH, the amyloid nucleation score was 0.228 ± 1.2. LVILVVFGKRY showed an amyloid nucleation score of -0.139 ± 0.41. In the case of IRTMSGNDKPI, the amyloid nucleation score is reported as -0.36 ± 0.33. Work on TPLNTLYRLPMGNWLG yielded an amyloid nucleation score of 0.06 ± 0.26. IGSNK gave an amyloid nucleation score of -1.38 ± 0.86. In the case of FQCVFH, the amyloid nucleation score is reported as 3.88 ± 0.062. In the case of TCVDAVVLM, the amyloid nucleation score is reported as 0.063 ± 0.62. CLYVTPYMLFYLLVSNGTEC showed an amyloid nucleation score of -1 ± 0.35. GTLFYTDPLLCIVYLINLCR gave an amyloid nucleation score of -0.33 ± 0.56. For CIMLRMFVYESYSVCVVVA, the amyloid nucleation score was “inactive”. Substance FIVGTFLHENASLRFRIHKA has an amyloid nucleation score of -0.011 ± 0.35. GSTDGKGVTQRNYVNSILYV showed an amyloid nucleation score of 0.472 ± 0.78. With VGNVRPVFDTALTTWRRCCF the amyloid nucleation score was 0.223 ± 0.49. Substance MIVGGNLEEIVNHCYFCVER has an amyloid nucleation score of 0.511 ± 0.24. VCRKRCERQLKPL gave an amyloid nucleation score of 0.241 ± 0.24. LSGCEGVPLNLMYLDSKMSR showed an amyloid nucleation score of -0.106 ± 0.74. For SNCGWRIFKEM, the amyloid nucleation score was -1.35 ± 2.1. For FFRGFSWRVCSSFSSLVELW, the amyloid nucleation score was “inactive”. Work on MLANSLFFT yielded an amyloid nucleation score of -1.23 ± 1.6. In the case of TEAFRSRAFFGWWRSMCRRW, the amyloid nucleation score is reported as 0.112 ± 0.87. With NLGTSYAWHDNGLFCIHCVS the amyloid nucleation score was 1.34 ± 0.84. MPGRNLRLNKVR gave an amyloid nucleation score of 0.273 ± 0.4. In the case of LWLHGGARNVDMCKVIFYFG, the amyloid nucleation score is reported as 6.94 ± 0.088. With SITWNPPVPVRTNVVDRNLG the amyloid nucleation score was 0.48 ± 0.52. Substance AHRDWFS has an amyloid nucleation score of -0.553 ± 1.1. Substance ITSIANFLWIL has an amyloid nucleation score of 3.03 ± 0.069. NCDLECQSLRAYGLSCKKSR gave an amyloid nucleation score of -0.22 ± 0.43. GYFCGMDLCTKEGLTHYEY gave an amyloid nucleation score of -0.736 ± 0.72. With RYKIQPAIPVQEGLMGLSDP the amyloid nucleation score was 0.282 ± 0.43. In the case of YAISGAGYMLF, the amyloid nucleation score is reported as 0.027 ± 1.7. LIRLMSQ showed an amyloid nucleation score of 1.83 ± 0.24. For RASWNMNFSNFFDKMCRIPS, the amyloid nucleation score was -0.334 ± 0.35. MIVILTGLLSTNGNLS showed an amyloid nucleation score of 1.64 ± 0.39. TCTYVYFLCSSIYARNITFM gave an amyloid nucleation score of 8.838 ± 0.057. With HDLVKVFSFCVWP the amyloid nucleation score was 3.02 ± 0.19. Substance GFFVQNRTWQIH has an amyloid nucleation score of -0.858 ± 0.45. In the case of LHRITYLCSNVYSVCGLVCA, the amyloid nucleation score is reported as 4.35 ± 0.079. Work on NVSEVCKYYPLFRSD yielded an amyloid nucleation score of -0.007 ± 0.23. VRCVICCFCIWLKAWWDYKR showed an amyloid nucleation score of 1.47 ± 0.45. MSDKSTWYC showed an amyloid nucleation score of 0.157 ± 0.61. TTEHAK showed an amyloid nucleation score of -0.263 ± 0.2. For PVSFRILIVEVGLLCRLGAI, the amyloid nucleation score was 0.165 ± 0.75. For VIVSSWLLTCTYSRYMRY, the amyloid nucleation score was -1.5 ± 2.7. LYVTVGWSLWYGSFAVMVVC showed an amyloid nucleation score of 0.026 ± 0.41. In the case of CTWYKFDIGWAEGLGYRDYP, the amyloid nucleation score is reported as 0.282 ± 1.2. TLSLFLRKGSRTLRCVCPRG showed an amyloid nucleation score of -0.112 ± 0.33. Substance GNLSPSLCGHILLVTLIKGW has an amyloid nucleation score of 0.291 ± 0.39. YPTPLQVFVRSRFDRRI showed an amyloid nucleation score of -0.132 ± 0.26. Substance PYLSRTRISIVNMCSICGLI has an amyloid nucleation score of 1.34 ± 0.44. Substance WFWIMIFRHCNVIL has an amyloid nucleation score of 0.404 ± 0.5. YCMRFVQ showed an amyloid nucleation score of 1.52 ± 0.49. For FYIMTLGYCSWFSVGKRLSP, the amyloid nucleation score was -0.551 ± 0.43. Substance DVMAVCGIGRKYLIWYSCVR has an amyloid nucleation score of -1.54 ± 0.79. With TCDRVNAIVEFWRCR the amyloid nucleation score was 1.46 ± 0.12. Work on RWNRTRFPHLYCKIGEKCIY yielded an amyloid nucleation score of 0.312 ± 0.33. VWIDLSMCIYMLEPLNSLFR showed an amyloid nucleation score of 1.95 ± 0.19. Substance GFTGARVSTQHRLRGN has an amyloid nucleation score of -0.245 ± 0.84. Work on MLMLSGVF yielded an amyloid nucleation score of -0.782 ± 0.53. FLSRFLMVRTRSAASVSAYE gave an amyloid nucleation score of -0.204 ± 0.39. CILWDWMYEGMKTSEGIFDR showed an amyloid nucleation score of 0.118 ± 0.71. For DRLWIWQGNIVASIYKSCLL, the amyloid nucleation score was 5.41 ± 0.068. VNMSKHYRRGWGDDVATGVR gave an amyloid nucleation score of 0.693 ± 0.49. In the case of YLCKVRACTRKSQSLLCGAS, the amyloid nucleation score is reported as 0.678 ± 0.65. In the case of FVVQPYHYKSY, the amyloid nucleation score is reported as 0.264 ± 0.34. HLVRLTFVMLFGGNLWISS showed an amyloid nucleation score of 0.91 ± 0.26. VWMRVKIGGVWC gave an amyloid nucleation score of 1.58 ± 0.47. Substance FHGLSGMRYWTRFCMWSPAC has an amyloid nucleation score of 1.36 ± 0.66. ERAPASSMGSWYGIGKGNAV gave an amyloid nucleation score of -0.061 ± 1.1. AFDWSMSAKDQINEQTLNSV showed an amyloid nucleation score of 0.617 ± 0.28. In the case of WPRNFYFMFRCLGMAAREMC, the amyloid nucleation score is reported as 0.285 ± 0.63. LFFVSRG gave an amyloid nucleation score of -0.465 ± 1.6. In the case of YLGRVSFIGHFVVTVSGSSQ, the amyloid nucleation score is reported as 1.1 ± 0.21. For QLSDVSRWSFIWLKGGQRST, the amyloid nucleation score was 0.334 ± 0.84. LNVIQPSWDRNFHFEVRFGH showed an amyloid nucleation score of 7.942 ± 0.061. FTMSTISCSGSDTIVID gave an amyloid nucleation score of -0.503 ± 0.25. Substance TTGSALTETATDQVGWNYSL has an amyloid nucleation score of 0.265 ± 0.41. Substance FPEHVPVSVYVCYRGYGRRV has an amyloid nucleation score of -0.589 ± 0.61. In the case of YVHLYDDCTIGSTRAEGRGY, the amyloid nucleation score is reported as 0.777 ± 1.2. In the case of YQFGLEKSMLGRGY, the amyloid nucleation score is reported as 0.36 ± 0.41. Substance FFCMKGKILIINALLEIDVG has an amyloid nucleation score of 0.079 ± 0.34. Substance YSCWFKHRTALPIGSEGMTR has an amyloid nucleation score of 0.708 ± 0.53. SLSLIVVKNGIFLVH gave an amyloid nucleation score of 3.16 ± 0.12. For KYFYMMTAYRRWRRDPYLGG, the amyloid nucleation score was -0.54 ± 0.62. In the case of DSQFAVKFCAR, the amyloid nucleation score is reported as “inactive”.
